Article PMC10786891, “Massively parallel profiling of RNA-targeting CRISPR-Cas13d”

T1: EsCas13d, nuclease-dead (Eubacterium siraeum, UniProt B0MS50, R295A;H300A;R849A;H854A)
T1 sequence: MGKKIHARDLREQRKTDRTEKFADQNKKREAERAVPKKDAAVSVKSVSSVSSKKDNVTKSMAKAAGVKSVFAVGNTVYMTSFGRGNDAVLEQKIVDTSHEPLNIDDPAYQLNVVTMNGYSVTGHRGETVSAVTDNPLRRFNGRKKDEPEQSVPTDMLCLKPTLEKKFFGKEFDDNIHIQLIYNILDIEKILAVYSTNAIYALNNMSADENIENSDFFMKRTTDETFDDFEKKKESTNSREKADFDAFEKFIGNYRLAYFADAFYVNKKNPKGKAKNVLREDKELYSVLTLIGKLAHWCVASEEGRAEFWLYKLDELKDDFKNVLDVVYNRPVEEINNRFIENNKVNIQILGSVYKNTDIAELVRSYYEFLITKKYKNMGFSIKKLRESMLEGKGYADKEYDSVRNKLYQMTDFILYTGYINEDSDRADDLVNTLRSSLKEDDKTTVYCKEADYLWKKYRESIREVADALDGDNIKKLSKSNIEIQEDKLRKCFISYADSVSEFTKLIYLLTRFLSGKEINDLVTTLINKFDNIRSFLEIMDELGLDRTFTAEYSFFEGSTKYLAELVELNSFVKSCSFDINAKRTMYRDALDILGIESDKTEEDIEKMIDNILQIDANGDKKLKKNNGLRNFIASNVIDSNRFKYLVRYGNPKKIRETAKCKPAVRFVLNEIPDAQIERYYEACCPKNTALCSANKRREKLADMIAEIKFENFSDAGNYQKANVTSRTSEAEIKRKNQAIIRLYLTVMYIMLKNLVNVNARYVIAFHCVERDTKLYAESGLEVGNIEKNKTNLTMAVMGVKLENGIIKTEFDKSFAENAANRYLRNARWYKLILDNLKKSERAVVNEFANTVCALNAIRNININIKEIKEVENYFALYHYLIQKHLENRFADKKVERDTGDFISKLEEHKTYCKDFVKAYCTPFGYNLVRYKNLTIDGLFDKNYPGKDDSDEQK

B1: target 2 MT 5'PFS AGU 3'PFS AUC (mixed)
RNA 1: CACCCGUGCAAAAUUGCAGGGGUCUAAAACCUUCUCCAAAUUGUUUCAUCCU
RNA 2: GGGAAUGGAUCCACAUCUACGAAUUCAGUAGGAUGAAACAAUUUGGAGAAGAUCAGAUCGGAAGAGCACACGU
B2: target 2 MT 5'PFS ACU 3'PFS AGG (mixed)
RNA 1: CACCCGUGCAAAAUUGCAGGGGUCUAAAACCUUCUCCAAAUUGUUUCAUCCU
RNA 2: GGGAAUGGAUCCACAUCUACGAAUUCACUAGGAUGAAACAAUUUGGAGAAGAGGAGAUCGGAAGAGCACACGU
B3: target 2 MT 5'PFS CUG 3'PFS CCA (mixed)
RNA 1: CACCCGUGCAAAAUUGCAGGGGUCUAAAACCUUCUCCAAAUUGUUUCAUCCU
RNA 2: GGGAAUGGAUCCACAUCUACGAAUUCCUGAGGAUGAAACAAUUUGGAGAAGCCAAGAUCGGAAGAGCACACGU
B4: target 2 MT 5'PFS UUC 3'PFS AUA (mixed)
RNA 1: CACCCGUGCAAAAUUGCAGGGGUCUAAAACCUUCUCCAAAUUGUUUCAUCCU
RNA 2: GGGAAUGGAUCCACAUCUACGAAUUCUUCAGGAUGAAACAAUUUGGAGAAGAUAAGAUCGGAAGAGCACACGU
B5: target 2 MT 5'PFS UGA 3'PFS UAC (mixed)
RNA 1: CACCCGUGCAAAAUUGCAGGGGUCUAAAACCUUCUCCAAAUUGUUUCAUCCU
RNA 2: GGGAAUGGAUCCACAUCUACGAAUUCUGAAGGAUGAAACAAUUUGGAGAAGUACAGAUCGGAAGAGCACACGU
B6: target 2 MT 5'PFS AAG 3'PFS CAG (mixed)
RNA 1: CACCCGUGCAAAAUUGCAGGGGUCUAAAACCUUCUCCAAAUUGUUUCAUCCU
RNA 2: GGGAAUGGAUCCACAUCUACGAAUUCAAGAGGAUGAAACAAUUUGGAGAAGCAGAGAUCGGAAGAGCACACGU
B7: target 2 MT 5'PFS UCU 3'PFS CUC (mixed)
RNA 1: CACCCGUGCAAAAUUGCAGGGGUCUAAAACCUUCUCCAAAUUGUUUCAUCCU
RNA 2: GGGAAUGGAUCCACAUCUACGAAUUCUCUAGGAUGAAACAAUUUGGAGAAGCUCAGAUCGGAAGAGCACACGU
B8: target 2 MT 5'PFS GCA 3'PFS ACU (mixed)
RNA 1: CACCCGUGCAAAAUUGCAGGGGUCUAAAACCUUCUCCAAAUUGUUUCAUCCU
RNA 2: GGGAAUGGAUCCACAUCUACGAAUUCGCAAGGAUGAAACAAUUUGGAGAAGACUAGAUCGGAAGAGCACACGU
B9: target 2 MT 5'PFS AUG 3'PFS ACG (mixed)
RNA 1: CACCCGUGCAAAAUUGCAGGGGUCUAAAACCUUCUCCAAAUUGUUUCAUCCU
RNA 2: GGGAAUGGAUCCACAUCUACGAAUUCAUGAGGAUGAAACAAUUUGGAGAAGACGAGAUCGGAAGAGCACACGU
B10: target 2 MT 5'PFS AUU 3'PFS CUU (mixed)
RNA 1: CACCCGUGCAAAAUUGCAGGGGUCUAAAACCUUCUCCAAAUUGUUUCAUCCU
RNA 2: GGGAAUGGAUCCACAUCUACGAAUUCAUUAGGAUGAAACAAUUUGGAGAAGCUUAGAUCGGAAGAGCACACGU
B11: target 2 MT 5'PFS UUC 3'PFS UCC (mixed)
RNA 1: CACCCGUGCAAAAUUGCAGGGGUCUAAAACCUUCUCCAAAUUGUUUCAUCCU
RNA 2: GGGAAUGGAUCCACAUCUACGAAUUCUUCAGGAUGAAACAAUUUGGAGAAGUCCAGAUCGGAAGAGCACACGU
B12: target 2 MT 5'PFS GUA 3'PFS UUA (mixed)
RNA 1: CACCCGUGCAAAAUUGCAGGGGUCUAAAACCUUCUCCAAAUUGUUUCAUCCU
RNA 2: GGGAAUGGAUCCACAUCUACGAAUUCGUAAGGAUGAAACAAUUUGGAGAAGUUAAGAUCGGAAGAGCACACGU
B13: target 2 MT 5'PFS ACU 3'PFS AGA (mixed)
RNA 1: CACCCGUGCAAAAUUGCAGGGGUCUAAAACCUUCUCCAAAUUGUUUCAUCCU
RNA 2: GGGAAUGGAUCCACAUCUACGAAUUCACUAGGAUGAAACAAUUUGGAGAAGAGAAGAUCGGAAGAGCACACGU
B14: target 2 MT 5'PFS GAU 3'PFS CGC (mixed)
RNA 1: CACCCGUGCAAAAUUGCAGGGGUCUAAAACCUUCUCCAAAUUGUUUCAUCCU
RNA 2: GGGAAUGGAUCCACAUCUACGAAUUCGAUAGGAUGAAACAAUUUGGAGAAGCGCAGAUCGGAAGAGCACACGU
B15: target 2 MT 5'PFS GUG 3'PFS UAC (mixed)
RNA 1: CACCCGUGCAAAAUUGCAGGGGUCUAAAACCUUCUCCAAAUUGUUUCAUCCU
RNA 2: GGGAAUGGAUCCACAUCUACGAAUUCGUGAGGAUGAAACAAUUUGGAGAAGUACAGAUCGGAAGAGCACACGU
B16: target 2 MT 5'PFS AAG 3'PFS CAC (mixed)
RNA 1: CACCCGUGCAAAAUUGCAGGGGUCUAAAACCUUCUCCAAAUUGUUUCAUCCU
RNA 2: GGGAAUGGAUCCACAUCUACGAAUUCAAGAGGAUGAAACAAUUUGGAGAAGCACAGAUCGGAAGAGCACACGU
B17: target 2 MT 5'PFS GUA 3'PFS AUA (mixed)
RNA 1: CACCCGUGCAAAAUUGCAGGGGUCUAAAACCUUCUCCAAAUUGUUUCAUCCU
RNA 2: GGGAAUGGAUCCACAUCUACGAAUUCGUAAGGAUGAAACAAUUUGGAGAAGAUAAGAUCGGAAGAGCACACGU
B18: target 2 MT 5'PFS UCU 3'PFS CUA (mixed)
RNA 1: CACCCGUGCAAAAUUGCAGGGGUCUAAAACCUUCUCCAAAUUGUUUCAUCCU
RNA 2: GGGAAUGGAUCCACAUCUACGAAUUCUCUAGGAUGAAACAAUUUGGAGAAGCUAAGAUCGGAAGAGCACACGU
B19: target 2 MT 5'PFS ACU 3'PFS AGC (mixed)
RNA 1: CACCCGUGCAAAAUUGCAGGGGUCUAAAACCUUCUCCAAAUUGUUUCAUCCU
RNA 2: GGGAAUGGAUCCACAUCUACGAAUUCACUAGGAUGAAACAAUUUGGAGAAGAGCAGAUCGGAAGAGCACACGU
B20: target 2 MT 5'PFS GAU 3'PFS CGU (mixed)
RNA 1: CACCCGUGCAAAAUUGCAGGGGUCUAAAACCUUCUCCAAAUUGUUUCAUCCU
RNA 2: GGGAAUGGAUCCACAUCUACGAAUUCGAUAGGAUGAAACAAUUUGGAGAAGCGUAGAUCGGAAGAGCACACGU
B21: target 2 MT 5'PFS UGA 3'PFS UAA (mixed)
RNA 1: CACCCGUGCAAAAUUGCAGGGGUCUAAAACCUUCUCCAAAUUGUUUCAUCCU
RNA 2: GGGAAUGGAUCCACAUCUACGAAUUCUGAAGGAUGAAACAAUUUGGAGAAGUAAAGAUCGGAAGAGCACACGU
B22: target 2 MT 5'PFS GUG 3'PFS UAA (mixed)
RNA 1: CACCCGUGCAAAAUUGCAGGGGUCUAAAACCUUCUCCAAAUUGUUUCAUCCU
RNA 2: GGGAAUGGAUCCACAUCUACGAAUUCGUGAGGAUGAAACAAUUUGGAGAAGUAAAGAUCGGAAGAGCACACGU
B23: target 2 MT 5'PFS GCG 3'PFS AAC (mixed)
RNA 1: CACCCGUGCAAAAUUGCAGGGGUCUAAAACCUUCUCCAAAUUGUUUCAUCCU
RNA 2: GGGAAUGGAUCCACAUCUACGAAUUCGCGAGGAUGAAACAAUUUGGAGAAGAACAGAUCGGAAGAGCACACGU
B24: target 2 MT 5'PFS CUG 3'PFS CCU (mixed)
RNA 1: CACCCGUGCAAAAUUGCAGGGGUCUAAAACCUUCUCCAAAUUGUUUCAUCCU
RNA 2: GGGAAUGGAUCCACAUCUACGAAUUCCUGAGGAUGAAACAAUUUGGAGAAGCCUAGAUCGGAAGAGCACACGU
B25: target 2 MT 5'PFS CUG 3'PFS CCG (mixed)
RNA 1: CACCCGUGCAAAAUUGCAGGGGUCUAAAACCUUCUCCAAAUUGUUUCAUCCU
RNA 2: GGGAAUGGAUCCACAUCUACGAAUUCCUGAGGAUGAAACAAUUUGGAGAAGCCGAGAUCGGAAGAGCACACGU
B26: target 2 MT 5'PFS GAU 3'PFS CGA (mixed)
RNA 1: CACCCGUGCAAAAUUGCAGGGGUCUAAAACCUUCUCCAAAUUGUUUCAUCCU
RNA 2: GGGAAUGGAUCCACAUCUACGAAUUCGAUAGGAUGAAACAAUUUGGAGAAGCGAAGAUCGGAAGAGCACACGU
B27: target 1 insU 3' of 21,insC 3' of 19 (mixed)
RNA 1: CACCCGUGCAAAAAUGCAGGGGUCUAAAACUGAGCGGAUAACCUCUCUAUGG
RNA 2: GGGAAUGGAUCCACAUCUACGAAUUCGUACCUAUCAGAGAGGUUAUCCGCUCACCGAGAUCGGAAGAGCACACGU
B28: target 1 U3G,G17C (mixed)
RNA 1: CACCCGUGCAAAAAUGCAGGGGUCUAAAACUGAGCGGAUAACCUCUCUAUGG
RNA 2: GGGAAUGGAUCCACAUCUACGAAUUCGUACCAUACAGAGGUUAUCCGCGCACCGAGAUCGGAAGAGCACACGU

target: T1, EsCas13d, nuclease-dead; experiment: crRNA (strand 1, pre-loaded); Mg2+; 40 mM Tris-HCl pH 7.5, 150 mM NaCl, 6 mM MgCl2, 1 mM DTT, 0.1% Tween-20, 0.2 mg/ml BSA; 25 C; 10 min per concentration, then washed; conditions: tags: His6-TwinStrep-SUMO cleaved; N-terminal SNAP kept (SNAP-Surface 488); label: 3' end held by stalled T7 RNA polymerase

Compared with B1, B2 is 3.7-fold lower in Kd: 16.7 ± 3.2 nM for the first, 4.5 ± 0.6 nM for the second. The second binds more tightly here.

B3 and B4 are within error of each other in Kd: 14.9 ± 3.1 nM for the first, 16 ± 5 nM for the second.

Compared with B5, B6 is 2.2-fold lower in Kd: 9.1 ± 1.6 nM for the first, 4.2 ± 0.7 nM for the second.

B7 and B8 are within 1.5-fold of each other in Kd: 9.3 ± 1.6 nM for the first, 13.2 ± 1.8 nM for the second.

B9 and B10 are within error of each other in Kd: 12.6 ± 2.1 nM for the first, 10 ± 1 nM for the second.

B11 and B12 are within error of each other in Kd: 19.6 ± 3 nM for the first, 22 ± 4 nM for the second.

First: B13
Second: B14
The Kd of the first is 3.4-fold lower: 3.7 ± 0.5 nM for the first, 12.7 ± 2 nM for the second. The first binds more tightly here.

First: B15
Second: B16
The Kd of the first is 5.2-fold higher: 15.1 ± 1.5 nM for the first, 2.9 ± 1 nM for the second. The second binds more tightly here.

Compared with B17, B18 is 3.3-fold higher in Kd: 6.1 ± 0.7 nM for the first, 20 ± 6 nM for the second. The first binds more tightly here.

Compared with B19, B20 is 4.4-fold higher in Kd: 3.18 ± 0.3 nM for the first, 14.1 ± 2.6 nM for the second. The first binds more tightly here.

First: B21
Second: B22
The Kd of the first is 1.5-fold lower: 6 ± 1.3 nM for the first, 9 ± 0.7 nM for the second. The first binds more tightly here.

First: B23
Second: B24
The Kd of the first is 3.8-fold lower: 15 ± 4 nM for the first, 57 ± 22 nM for the second. The first binds more tightly here.

First: B25
Second: B26
The Kd of the first is 2.7-fold lower: 4.06 ± 0.2 nM for the first, 10.9 ± 1.4 nM for the second.

Going from B27 to B28, the Kd falls from roughly 100 nM to 36.7 ± 2.8 nM (2.7-fold). The second binds more tightly here.
